Reference: patent CN106117359A (UNIV SUN YAT SEN, dated 2016)

Tests used:
[1] = target: CD3 on Jurkat细胞 (Jurkat靶标细胞) (human) (UniProt P07766); assay: flow cytometry (FACSCalibur), culture supernatant on Jurkat cells; negative control sdAb
[2] = target: CD3 on Jurkat细胞 (Jurkat靶标细胞) (human) (UniProt P07766); assay: flow cytometry (FACSCalibur), culture supernatant on Jurkat cells
CD3-His蛋白(MP-5) = target: T1, CD3-His蛋白(MP-5) (human, UniProt P07766 23-126); assay: BLI (Octet RED96) off-rate screening; sdAb-SASA from expression medium captured on BSA-coated biosensor, CD3 at 100 nM in solution, 30°C, 1:1 Langmuir model
T1 construct: also called CD3蛋白; not shown: His tag
T1 sequence (P07766 23-126): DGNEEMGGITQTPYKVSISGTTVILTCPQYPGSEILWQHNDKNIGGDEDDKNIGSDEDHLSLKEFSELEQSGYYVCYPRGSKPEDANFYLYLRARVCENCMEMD

## NC-sdAb (相同形式的非相关性sdAb) (VHH)
[1]
  MFI: 115 MFI

B1: 抗CD3单域抗体 C12 (sdAb clone C12) (VHH)
VHH: QVQLQESGGGLVQPGGSLRLSCAASGSMYRPNTMGWHRQAPGEQRKLVARITSDGNTNYADSVKGRFTISRDNAKNTVHLEMNSLQPEDTAVYYCYYSDFVNLRGFWGQGTQVTVSS
notes: Llama sdAb from a phage display library; Tested as unpurified sdAb-SASA protein in E. coli expression medium or culture supernatant; 1 in its text; also called sdAb-SASA; not shown: SASA fusion partner from the pFASEBA vector (sdAb-SASA protein in expression medium)
[2]
  MFI: 2330 MFI
CD3-His蛋白(MP-5)
  koff: 6.61e-05 s⁻¹
